From the RNAGym collection of RNA variant scans (doi:10.1093/nar/gkz1192)

B1: CPEB3 Ribozyme (parent)
chain: UAACAGGGGGCCACAGCAGAAGCGUUCACGUCGCAGCCCCUGUCAGAUUCUGGUGAAUCUGCGAAUUCUGCUGUAUAUCUC

Variants of: B1
Experiment: self-cleavage, relative activity (ratio to wild type); higher = more cleavage; in vitro, sequencing
In short: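 Relative activity compares each variant's cleaved/total read fraction with that of the unmutated ribozyme. To get these fractions, barcoded CPEB3 ribozyme libraries from rounds of error-prone PCR were transcribed with T7 RNA polymerase for 5 hours at 37°C and then given 15 min of DNase I treatment before EDTA was added. The RNAs were reverse transcribed with template switching and sequenced on Illumina, and DNA sequencing linked barcodes to variants. A minimum of 5 reads applied, and three batches were averaged.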
With C68G U72C the self-cleavage was 0.48. For U67C U74C, the self-cleavage was 0.37. Work on U67C U74A yielded a self-cleavage of 0.31. With C68A C81A the self-cleavage was 0.6. With U67G U80C the self-cleavage was 0.34. Work on U67G U80A yielded a self-cleavage of 0.4. Variant U67A C81G has a self-cleavage of 0.92. U67G A77C showed a self-cleavage of 0.32. Variant U67G G70C has a self-cleavage of 0.21. U66G gave a self-cleavage of 0.48. With U67C C79A the self-cleavage was 0.49. U67C C79U gave a self-cleavage of 0.32. C68G U74A showed a self-cleavage of 0.43. C68G A77G showed a self-cleavage of 0.61. For U69A A75U, the self-cleavage was 0.66. Work on U69A A75C yielded a self-cleavage of 0.55. U69A A75G showed a self-cleavage of 0.53. In the case of C68G U78C, the self-cleavage is reported as 0.69. In the case of U69A U78C, the self-cleavage is reported as 0.75. With U69A U78G the self-cleavage was 0.39. In the case of U69A U78A, the self-cleavage is reported as 0.92. Work on U66C U67G yielded a self-cleavage of 0.32. With U66C U67C the self-cleavage was 0.32. With U66G U80C the self-cleavage was 0.54. Variant U66G U80A has a self-cleavage of 0.67. For C68A G70U, the self-cleavage was 0.36. U67G U69C gave a self-cleavage of 0.5. In the case of U69A G70A, the self-cleavage is reported as 0.24. With C68G U69C the self-cleavage was 0.27. Variant C68A U69A has a self-cleavage of 0.25. For C68A U69G, the self-cleavage was 0.42. C68A U69C showed a self-cleavage of 0.17. With C68U U80C the self-cleavage was 1.08. Variant C68U A75U has a self-cleavage of 1.02. C68U A75G gave a self-cleavage of 0.67. With U67C G73A the self-cleavage was 0.34. In the case of U67C G73U, the self-cleavage is reported as 0.46. In the case of U67C G73C, the self-cleavage is reported as 0.46. Variant C68A U80C has a self-cleavage of 0.53. C68A A75U gave a self-cleavage of 0.28. Variant U67C C81U has a self-cleavage of 0.37. Work on U67C C81G yielded a self-cleavage of 0.16. For U67G, the self-cleavage was 0.4. In the case of U67C, the self-cleavage is reported as 0.32. For U67A, the self-cleavage was 0.54. C68A U72C showed a self-cleavage of 0.2. With C68A U72A the self-cleavage was 0.4. In the case of U69A, the self-cleavage is reported as 0.63. U67A U74G gave a self-cleavage of 0.81. For U67A U74C, the self-cleavage was 0.92. U67A U74A showed a self-cleavage of 0.8. Work on C68A U78C yielded a self-cleavage of 0.5. With U66G C68G the self-cleavage was 0.29. U66G C68U showed a self-cleavage of 0.38. U67A A75G gave a self-cleavage of 0.54. U67A A75U gave a self-cleavage of 0.65. In the case of U67C U80C, the self-cleavage is reported as 0.4. U67C U80A gave a self-cleavage of 0.32. Work on U67G A75U yielded a self-cleavage of 0.6. U66G U72C gave a self-cleavage of 0.61. Work on U66G U72A yielded a self-cleavage of 0.24. C68A showed a self-cleavage of 0.41. In the case of C68U, the self-cleavage is reported as 1.06. C68G showed a self-cleavage of 0.47. Variant U66C U80C has a self-cleavage of 0.45. U66C U80A showed a self-cleavage of 0.48. With U66C U80G the self-cleavage was 0.49. For U67C C71G, the self-cleavage was 0.21. For U67A U80C, the self-cleavage was 0.58. U67A U80A showed a self-cleavage of 0.58. In the case of C68A G73U, the self-cleavage is reported as 0.85. U67A A77U gave a self-cleavage of 0.39. In the case of U67A A77G, the self-cleavage is reported as 0.57. Variant U67A U72A has a self-cleavage of 0.38. For U67A U72G, the self-cleavage was 0.35. Work on U67A U72C yielded a self-cleavage of 0.49. C68U U78C showed a self-cleavage of 1.03. For C68U U78A, the self-cleavage was 1.01. With U66G U69C the self-cleavage was 0.31. In the case of U66G U69A, the self-cleavage is reported as 0.47. In the case of U66G G70A, the self-cleavage is reported as 0.27. Variant U67A C71G has a self-cleavage of 0.33. U67A C71U showed a self-cleavage of 0.11. U67A C71A gave a self-cleavage of 0.3. With U66C U69A the self-cleavage was 0.3. For U66C U69C, the self-cleavage was 0.34. Variant U66C U69G has a self-cleavage of 0.31. C68A U76C gave a self-cleavage of 0.54. With U67A C79A the self-cleavage was 0.82. For U67C A75U, the self-cleavage was 0.26. U67C A75G showed a self-cleavage of 0.35. With U67C G70U the self-cleavage was 0.26. U67C G70A showed a self-cleavage of 0.18. Variant U67C G70C has a self-cleavage of 0.39. U67C U69G showed a self-cleavage of 0.45. In the case of U67C U69A, the self-cleavage is reported as 0.33. With U67C U69C the self-cleavage was 0.32. Work on U67A U69A yielded a self-cleavage of 0.3. U67A U69C showed a self-cleavage of 0.4. For U67A C68U, the self-cleavage was 0.33. Variant U69A U72A has a self-cleavage of 0.33. With U69A U72G the self-cleavage was 0.49. U69A U72C gave a self-cleavage of 0.5. U67A G73A gave a self-cleavage of 1.05. Work on U67A G73C yielded a self-cleavage of 1.07. U67A U78C gave a self-cleavage of 0.52. For U67A U78A, the self-cleavage was 0.64. Variant U66G A75U has a self-cleavage of 0.67. With C68U U72G the self-cleavage was 0.95. C68U U72C showed a self-cleavage of 0.93. Work on C68U U72A yielded a self-cleavage of 0.35. U67A U76C gave a self-cleavage of 0.58. Variant U67A U76A has a self-cleavage of 0.68. Work on U67C A77U yielded a self-cleavage of 0.34. U67C A77G gave a self-cleavage of 0.3. For C68U U74C, the self-cleavage was 1.19. Variant U67A G70C has a self-cleavage of 0.23. With U67A G70A the self-cleavage was 0.45. With U67C U76A the self-cleavage was 0.3. U67C U76C showed a self-cleavage of 0.3. With U69A U80A the self-cleavage was 0.74. U69A U74A showed a self-cleavage of 0.55. Variant U69A U74C has a self-cleavage of 0.96. For U67C U78A, the self-cleavage was 0.29. U67C U78C showed a self-cleavage of 0.35. U67C U78G gave a self-cleavage of 0.12. Work on C68U U69G yielded a self-cleavage of 0.39. Variant C68U U69A has a self-cleavage of 0.22. For C68U U69C, the self-cleavage was 0.43. For U67G U78A, the self-cleavage was 0.67. In the case of U67G U78C, the self-cleavage is reported as 0.3. With U66C U78C the self-cleavage was 0.36. Work on U66C U78A yielded a self-cleavage of 0.43. U67G U72A showed a self-cleavage of 0.36. With U67G U72C the self-cleavage was 0.14. Variant U67C U72C has a self-cleavage of 0.29. Variant U67C U72A has a self-cleavage of 0.33. For U67C U72G, the self-cleavage was 0.22. Variant U66G U78C has a self-cleavage of 0.41. For U69A A77U, the self-cleavage was 0.75. For U69A A77G, the self-cleavage was 0.72. Work on U69A G73C yielded a self-cleavage of 0.65. Variant U69A G73A has a self-cleavage of 1.16. Work on U69A G73U yielded a self-cleavage of 0.93. In the case of U67G C79U, the self-cleavage is reported as 0.51. Variant U66C U74C has a self-cleavage of 0.66. U66C U74A showed a self-cleavage of 0.62. In the case of U69A C81A, the self-cleavage is reported as 0.98. U69A C81U showed a self-cleavage of 0.84. C68A U74G gave a self-cleavage of 0.68. Variant C68A U74A has a self-cleavage of 0.52. With C68A U74C the self-cleavage was 0.86. In the case of U66C U76C, the self-cleavage is reported as 0.43. For U66C U76G, the self-cleavage was 0.39. U66C U76A gave a self-cleavage of 0.41. U69A U76C gave a self-cleavage of 0.7. U69A U76G gave a self-cleavage of 0.7. In the case of U69A U76A, the self-cleavage is reported as 0.84. With U66C U72C the self-cleavage was 0.45. In the case of U66C U72G, the self-cleavage is reported as 0.46. For U66C U72A, the self-cleavage was 0.39. With U67C C68U the self-cleavage was 0.46. Work on U67C C68A yielded a self-cleavage of 0.38. With U67G C68U the self-cleavage was 0.44. Variant U69A C71G has a self-cleavage of 0.22. For U69A C71U, the self-cleavage was 0.33. In the case of U67G U74C, the self-cleavage is reported as 0.6.
